Earlier results on two substances are cited in PMC10298792.

One data set addresses Bid BH3 (Homo sapiens) (UniProt P55957). Description: ITC.
The next data set deals with Pxt1 BH3 (Homo sapiens) (UniProt Q8NFP0). Description: ITC. (In ITC the heat of successive injections is recorded.)
Sequence of Pxt1 BH3 (Homo sapiens) (Q8NFP0 76-101): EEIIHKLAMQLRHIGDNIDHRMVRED

Sequence of Bcl-xL (Q07817 whole entry): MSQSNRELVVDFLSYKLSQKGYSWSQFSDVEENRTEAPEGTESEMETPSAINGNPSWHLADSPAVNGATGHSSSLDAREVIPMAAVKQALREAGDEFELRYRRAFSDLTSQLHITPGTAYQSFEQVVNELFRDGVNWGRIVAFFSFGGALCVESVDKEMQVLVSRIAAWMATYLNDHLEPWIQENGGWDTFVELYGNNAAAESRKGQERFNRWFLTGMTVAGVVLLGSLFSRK
Sequence of Bak (Q16611 2-211): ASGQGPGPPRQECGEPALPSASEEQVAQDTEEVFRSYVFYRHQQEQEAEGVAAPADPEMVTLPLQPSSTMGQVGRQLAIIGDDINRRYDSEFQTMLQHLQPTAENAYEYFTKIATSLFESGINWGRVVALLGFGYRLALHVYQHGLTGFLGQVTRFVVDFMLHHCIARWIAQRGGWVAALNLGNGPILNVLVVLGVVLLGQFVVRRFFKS

As for Bak (from UniProt Q16611), the Kd with Bid BH3 (Homo sapiens) is 22700 nM. Regarding Bcl-xL (from UniProt Q07817), the Kd in the data set with Pxt1 BH3 (Homo sapiens) was 233 nM; in the data set with Bid BH3 (Homo sapiens) it was 8.62 nM.

Usually Kd stands for the constant that tells how readily two partners part at equilibrium.
